Reference: publication PMC7592119 (Science (New York, N.Y.), 2019)

Biological target: truncated cycD1 (16-267) (human, UniProt P24385 16-267)
Test: crystal structure

Chain of truncated cycD1 (16-267) (P24385 16-267): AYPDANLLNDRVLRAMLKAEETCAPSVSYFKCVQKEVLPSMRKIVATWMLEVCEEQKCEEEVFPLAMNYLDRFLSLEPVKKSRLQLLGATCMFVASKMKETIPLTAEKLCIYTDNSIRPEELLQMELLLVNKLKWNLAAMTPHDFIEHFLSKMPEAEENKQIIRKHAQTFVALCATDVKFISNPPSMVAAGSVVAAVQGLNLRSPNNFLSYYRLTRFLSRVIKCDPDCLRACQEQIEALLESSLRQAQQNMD

B1: p27(3E) (p27^KID 25-93 with glutamate phosphomimetics at Y74, Y88 and Y89) (domain or fragment, human, UniProt P46527 25-93, looked up)
chain: KPSACRNLFGPVDHEELTRDLEKHCRDMEEASQRKWNFDFQNHKPLEGKEEWQEVEKGSLPEFEERPPR
Q: Does B1 bind?
A: Result: binds
